Laboratory results published in PMC12586476, “Molecular mechanism and structural models of protein-mediated copper transfer to the Arabidopsis thaliana ethylene receptor ETR1 at the ER membrane” (Scientific Reports, 2025).

T1: ETR1_GAF^1–316 (truncation of the Arabidopsis thaliana ethylene receptor ETR1 containing the transmembrane … (Arabidopsis thaliana, UniProt P49333 1-316, AlexaFluor 488-NHS (amine-reactive dye) label))
T1 construct: Membrane protein kept in Fos-Choline-14; source: E. coli C41(DE3)∆ompF∆acrAB, membranes solubilized in Fos-Choline-14, purified (Ni-NTA IMAC)
T1 sequence (looked up): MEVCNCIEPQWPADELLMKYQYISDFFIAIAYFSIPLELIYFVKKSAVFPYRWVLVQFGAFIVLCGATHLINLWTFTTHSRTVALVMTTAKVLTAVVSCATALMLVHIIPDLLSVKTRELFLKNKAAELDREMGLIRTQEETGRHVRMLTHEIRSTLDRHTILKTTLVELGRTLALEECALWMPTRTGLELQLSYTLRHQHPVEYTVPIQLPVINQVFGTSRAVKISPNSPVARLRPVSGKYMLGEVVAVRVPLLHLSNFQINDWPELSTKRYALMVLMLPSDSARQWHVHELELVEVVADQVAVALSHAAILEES

T2: Arabidopsis copper chaperone CCH (Arabidopsis thaliana, UniProt O82089 1-121, AlexaFluor 488 label)
T2 construct: Copper chaperone CCH, Arabidopsis thaliana
T2 sequence (looked up): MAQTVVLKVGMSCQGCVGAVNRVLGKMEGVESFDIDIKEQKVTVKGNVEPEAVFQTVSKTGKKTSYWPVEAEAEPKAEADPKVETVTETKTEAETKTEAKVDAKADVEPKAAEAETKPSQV


Key:
[1] = biological target: T1, ETR1_GAF^1–316 (truncation of the …); test: MST; AlexaFluor488-labelled ETR1_GAF 50 nM, MBDs titrated 100 µM to 24.4 nM; 300 mM NaCl, 50 mM HEPES pH 7.2 with Fos-Choline-14 and glycerol; room temperature; thermophoresis with T-jump; one-site binding model; apparent KD; conditions: both partners purified
[2] = biological target: Arabidopsis copper transport protein ATX1 (Arabidopsis thaliana); test: MST; AlexaFluor488-labelled ATX1 or CCH 100 nM, MBDs titrated (MBD1 300 µM to 0.19 nM, MBD2 100 µM to 0.19 nM, MBD3 100 µM to 0.06 nM); 300 mM NaCl, 50 mM HEPES pH 7.2 with Tween20 and glycerol; room temperature; initial fluorescence analysed; one-site binding model; apparent KD
[3] = biological target: T2, Arabidopsis copper chaperone CCH; test: as above; conditions: both partners purified

| Kd [1] [µM] | Kd [2] [µM] | Kd [3] [µM] | Binder |
| --- | --- | --- | --- |
| 13.3 ± 4.4 | 0.155 | 3.16 ± 0.684 | RAN1 metal binding domain 1 (MBD1) (domain or fragment, Arabidopsis thaliana, UniProt Q9S7J8 55-130, looked up, Copper-transporting P-type ATPase RAN1 (HMA7), Arabidopsis thaliana, MBD1, AA 55-130; Cloned into pETEV16b (pET-16b derivative with a TEV site); no tag cleavage is described; also called HMA7 MBD1; source: E. coli BL21 Gold (DE3), purified (Ni-NTA IMAC, SEC)) LRKIQVGVTGMTCAACSNSVEAALMNVNGVFKASVALLQNRADVVFDPNLVKEEDIKEAIEDAGFEAEILAEEQTQ |
| 8.3 ± 6.6 | 0.105 | 0.0885 ± 0.0782 | RAN1 degenerate metal binding domain 3 (MBD3) (domain or fragment, Arabidopsis thaliana, UniProt Q9S7J8 205-283, looked up, Copper-transporting P-type ATPase RAN1 (HMA7), Arabidopsis thaliana, MBD3, AA 205-283; Cloned into pETEV16b; also called HMA7 MBD3; source: E. coli BL21 Gold (DE3), purified (Ni-NTA IMAC, SEC); not shown: His tag (deca-histidine), N-terminal, kept) QQDKLVLRVDGILNELDAQVLEGILTRLNGVRQFRLDRISGELEVVFDPEVVSSRSLVDGIEEDGFGKFKLRVMSPYER |
| 22.3 ± 12.1 | 0.239 | 2.28 ± 0.99 | RAN1 metal binding domain 2 (MBD2) (domain or fragment, Arabidopsis thaliana, UniProt Q9S7J8 132-207, looked up, Copper-transporting P-type ATPase RAN1 (HMA7), Arabidopsis thaliana, MBD2, AA 132-207; Cloned into pETEV16b (pET-16b derivative with a TEV site); no tag cleavage is described; also called HMA7 MBD2; source: E. coli BL21 Gold (DE3), purified (Ni-NTA IMAC, SEC)) TLVGQFTIGGMTCAACVNSVEGILRDLPGVKRAVVALSTSLGEVEYDPNVINKDDIVNAIEDAGFEGSLVQSNQQD |
